Laboratory results: patent US8273705B2, “Conversion of apoptotic proteins” (The Burnham Institute, priority 2002, dated 2012)

Columns and labels:
Bcl-2/1-80 = target: T1, Bcl-2/1-80 (Homo sapiens, UniProt P10415); test: Co-IP assay with Bcl-2/1-80; format: binding
T1 construct: a fragment of Bcl-2 comprising the first 80 amino acids (Bcl-2/1-80); expressed in transfected cells; host or cells: HEK293T
Procedure: Therefore, TR3/ΔDBD was analyzed as to its interaction with a fragment of Bcl-2 comprising the first 80 amino acids (Bcl-2/1-80). […] The Bcl-2/1-80 fragment encompasses the N-terminal BH4 domain followed by an unstructured loop domain of approximately 50 amino acids length. To determine whether the BH4 domain or the loop region was responsible for binding to TR3/ΔDBD, TR3/ΔDBD interaction with Bcl-2 mutants lacking the BH4 domain (Bcl-2/ΔBH4) or the loop region (Bcl-2/ΔLoop) was analyzed. […] Thus, the loop region of Bcl-2 is involved in binding to TR3.
Deletion of the loop region of Bcl-2 completely blocks paclitaxel-induced apoptosis (Rakesh et al. 1999 PNAS USA 96:3775-3780). To further investigate whether the loop region of Bcl-2 is responsible for its interaction with TR3/ΔDBD, TR3/ΔDBD was co-transfected with the first 80-residue fragment of Bcl-2 including the loop region and BH4 domain.

Bcl-2/ΔTM = target: T2, Bcl-2/ΔTM (Homo sapiens, UniProt P10415); test: Mammalian two-hybrid assay in CV-1 cells; format: cell-based; settings: Gal-TAD fusion co-expressed with Gal4-DBD-Bcl-2/ΔTM, 48 h
T2 construct: expressed in transfected cells; host or cells: CV-1
Procedure: TR3/Bcl-2 interaction assays—Reporter gene assays using NurRE-tk-CAT in CV-1 cells, and GST pull-down assay were described previously (Li, et al. 2000 Science 289, 1159-1164). For the mammalian two-hybrid assays, CV-1 cells were co-transfected with pcDNA-Gal4TAD-TR3 or pcDNA-Gal4TAD-TR3/ΔDBD and pcDNA-Gal4DBD-Bcl-2/ΔTM along with a luciferase reporter gene driven by four copies of the Gal4-binding site. The cells were harvested and reporter gene activity was measured. For Co-IP assays, HEK293T cells were transiently transfected with various expression plasmids using a modified calcium phosphate precipitation method (Wu et al, 1997) in the presence of caspase inhibitors (zVAD-fmk) to prevent degradation of TR3 protein due to apoptosis. Cells were suspended in lysis buffer (50 mM Tris-HCl, PH7.4; 150 mM NaCl; 20 mM EDTA; 1% NP-40; 1 mM PMSF; 50 μg/ml Leupeptin; […]; 0.1 mM Na3VO4; and 1 mM DTT). […] Immunoreactive products were detected by chemiluminescence with an enhanced chemiluminescence system (ECL) (Amersham).
E. Two-hybrid assay—a two-hybrid assay was performed to assess the interaction of TR3 and Bcl-2. […] Reporter gene activity was determined 48 h later and normalized relative to β-gal activity.

[1] = test system: NCI-H460 lung cancer cells; test: GFP-TR3/ΔDBD mitochondrial targeting in NCI-H460 lung cancer cells; format: cell-based; settings: transient transfection
Procedure: Subcellular localization assays—Cells were seeded onto cover-slips in 6-well plates overnight, then transiently transfected with GFP-fusion expression plasmids. After 16 hours, cells were washed with PBS and fixed in 4% paraformaldehyde. For mitochondrial staining, cells were then incubated with anti-Hsp60 goat IgG (Santa Cruz, USA), followed by anti-goat IgG conjugated with Cy3 (Sigma). For cyt c staining, cells were incubated with monoclonal anti-cyt c IgG (PharMingen), followed by anti-mouse IgG conjugated with Cy5 (Amersham). Fluorescent images were collected and analyzed using a MRC-1024 MP laser-scanning confocal microscope (Bio-Rad). Subcellular fractionation assays were performed as described (Li, et al. 2000 Science 289:1159-1164). Briefly, cells (1×10^7 cells) suspended in 0.5 ml hypotonic buffer (5 mM Tris-HCl, pH 7.4, 5 mM KCl, 1.5 mM MgCl2, 0.1 mM EGTA, pH 8.0, and 1 mM DTT) were homogenized and cell extracts were centrifuged at 500×g for 5 min. The resulting supernatant was centrifuged at 10,000×g for 30 min at 4° C. to obtain the HM fraction. […]
Given the results of these studies, it was desirable to determine whether TR3 exerts its apoptotic effect in lung cancer cells as in prostate cancer cells by targeting to mitochondria. […] The cells were stained for mitochondria (Hsp60) and cytochrome c (Cyt c), and analyzed by confocal microscopy. […]

T1 sequence (P10415 1-80): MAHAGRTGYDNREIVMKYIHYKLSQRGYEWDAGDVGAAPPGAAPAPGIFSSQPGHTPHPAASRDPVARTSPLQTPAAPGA
T2 sequence (P10415 1-204 limits assumed, stated change not applied): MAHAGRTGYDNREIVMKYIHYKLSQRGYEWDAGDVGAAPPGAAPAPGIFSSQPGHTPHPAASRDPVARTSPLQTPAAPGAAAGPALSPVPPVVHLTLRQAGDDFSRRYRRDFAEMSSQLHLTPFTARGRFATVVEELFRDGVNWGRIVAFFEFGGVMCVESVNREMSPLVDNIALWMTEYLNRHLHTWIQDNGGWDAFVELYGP

- interaction with Bcl-2/1-80 (Co-IP) (Bcl-2/1-80): strongly interacted
- Gal4 reporter gene activity (Bcl-2/ΔTM): strongly activated
B1: TR3/ΔDBD: TR3 mutant with the DNA binding domain removed; used as GFP fusion (protein)
chain: MPCIQAQYGTPAPSPGPRDHLASDPLTPEFIKPTMDLASPEAAPAAPTALPSFSTFMDGYTGEFDTFLYQLPGTVQPCSSASSSASSTSSSSATSPASASFKFEDFQVYGCYPGPLSGPVDEALSSSGSDYYGSPCSAPSPSTPSFQPPQLSPWDGSFGHFSPSQTYLVLHRLQCARGFGDWIDSILAFSRSLHSLLVDVPAFACLSALVLITDRHGLQEPRRVEELQNRIASCLKEHVAAVAGEPQPASCLSRLLGKLPELRTLCTQGLQRIFYLKLEDLVPPPPIIDKIFMDTLPF
modifications: left off: large carriers; small tags and cut ends
notes: used as GFP fusion
- GFP-TR3/ΔDBD subcellular localization [1]: targeted to mitochondria
